Laboratory results reported in the supplement of paper PMC12042874.
± gives the uncertainty stated by the source.

Assay: amyloid nucleation score (Sup35N fusion, yeast selection) (log enrichment); library NNK3; higher = more nucleation; inactive = no reads after selection
Summary of the method: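 Growth for 7 days at 30°C on medium lacking adenine and uracil followed a 24-hour induction with 100 μM copper sulfate of psi-negative yeast expressing peptides of 20 random codons fused to Sup35N. Input and output plasmid inserts were sequenced with Illumina, and sequences with under 100 input reads were excluded. Nucleation score is the DiMSum log enrichment of output over input reads, centred on the mode score of non-aggregating sequences.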

Substance	amyloid nucleation score
WRLVLLHW	inactive
CGRRYGTGAPRCL	inactive
QGMALPLTTGGGVNKRTCYG	inactive
YSHWMVRAA	-0.145 ± 0.81
PMQTSNLNYCVCYCCAVRTF	0.88 ± 0.34
MIDDYRECSYIYF	inactive
SSSVKEMQQPVTTTLETQST	inactive
VFVNSYS	inactive
KSALTRPDARPVRYRQPTHS	inactive
HVQYLLHKFLTLVQMF	inactive
DCCKFFLKDSRSRSFSWSIY	1.66 ± 0.08
RTCSQTIDIGVRNWINEQIM	inactive
AQNSDHMSKATVH	inactive
YGMWHHYFGDLTLSSRLNHV	inactive
LMRNRFFNPVSGTFTASIGQ	-0.302 ± 1.1
GSAVVAAECIGKRC	inactive
FISSLSRSFL	inactive
NNYTSPMHRFRSNLFHCVSA	inactive
FPIDC	0.082 ± 0.58
LLLRFFRYLGYKLMRTIE	inactive
SMSFFMSNGRALLYCQMQFA	inactive
NEFVSYNLLVTGGWSRCWYF	inactive
SCARSGTYIAVGIQSCCPRW	1.5 ± 0.14
MISLMTYSYSRYMYIVSPVP	inactive

Substance	amyloid nucleation score
FACRVGGEHGGV	inactive
MSVRG	inactive
VDSHANHGSNHRWSASDEIS	inactive
RVCFLRINDGR	0.06 ± 0.49
NTGLAFTSYMTMDLLCISGA	inactive
LFSNSLNFLIK	0.679 ± 0.28
MTAMSFKGYAVIGGVIDRCR	inactive
YKGKWLFCRQMSCEHFFGFF	inactive
SCLCVSW	inactive
YRCSRNVENYGPSKRGYYTE	inactive
IRCNRYVSL	inactive
DYTMVKLLIGLSGIRTPVVR	inactive
LVLDCMIMGMIIDSWYWPLN	inactive
NLTVGSTILIPC	inactive
STNWSILFQDHSTTFFLMCA	0.279 ± 0.2
FILQGFPE	inactive
LRGGKFNQYWIGRHGLSSVS	-0.562 ± 1.1
GRIFRLPCYVRLVLVNCRYG	inactive
SNSRVGIFWDRLVFRYCRGM	-0.5 ± 1
FCYGSFGGLRELYCC	inactive
NLLWIISHNMNGVSRIISSV	inactive
NVLLFLIVKHSVGIFVV	inactive
DFWLHCGDK	inactive
NIRYVWCQKRLTCARSWNPV	inactive

Substance	amyloid nucleation score
SQVVDW	inactive
NVNMYIDFVLIDMNWQNCTQ	3.05 ± 0.062
FEIECNNGSGASTRLTSRIN	inactive
CDVHL	inactive
AHGNINFSLCDWHHIIQFSM	inactive
TSVDGLCSFMDLRL	inactive
DPVNLRC	inactive
EHEFYTKDNFLRGIFYNTNL	inactive
CSLTCWSVVRVFQYEILRE	inactive
LGRCDVIVKEFVTIIA	inactive
HCYWLVGSWRYFTALFEGGL	inactive
ATYNEMYVVPSRASPKGDWD	inactive
CVWAYLRLHGKWAF	0.598 ± 0.34
LLGSFEGLIALYSGGWMAYR	-0.108 ± 0.77
HQISVVCGTNMRNGCFRSLC	inactive
HEVCS	inactive
WVNKEDESVVWYIWFGIECC	inactive
ACGCYVSEIPWLRDRIKFWQ	inactive
YETYSCEFFVYRLFCLNRSH	inactive
RGTSSQ	inactive
ISCALHYDSVRKRYVVSGQL	inactive
RFGDVHDCVVVSNGNLRNES	inactive
FYFWLASLCSSDFSFYKVKL	inactive
EIVTRERIPEWYSLLLMGLP	inactive

Substance	amyloid nucleation score
TPSRLPQAACWQ	inactive
PKIVYLLAFIVKIELVILTD	inactive
VHFLSTVGMKLTALYKGVVM	inactive
LDLNVIDRGWTPGTGTVQRM	inactive
WLYRNA	inactive
TYKHTSWETLDDVFSDGSSS	inactive
KVWSLYLYVRSTYRL	inactive
ALKSPDSD	inactive
VSTYGWAVRWGVFWGSMTYT	inactive
FHQLGICKFKA	-0.387 ± 0.88
STFMYVCWRPTYGSYYQTVR	inactive
LSFIISCNYTINNNMWV	2.91 ± 0.077
SLGVNLSISVGKYEYSLSLK	inactive
VLLKRL	inactive
WGKTRFWRVSSWLLNDVWRV	inactive
VLYGRSGVVEANRC	inactive
SGLSNRGCCIMSY	inactive
NLCFCALCGKYIRVNVVAM	1.52 ± 0.088
AACNIN	inactive
KRYCSLMML	inactive
WLCLEYMVDEADNFSDGAWM	inactive
GGSIVVCLRHHRDLSMHSWD	inactive
AGVWWVCRRGVFFALMLM	inactive
IRMYNSSERFYSPDKRHVPK	inactive

Substance	amyloid nucleation score
CRIYCLLPISMIGSCSFIVH	inactive
WHTDWRW	inactive
LEAHESIRFCP	inactive
LTSLVLVLLLCSTRNGNGTC	1.55 ± 0.085
AFQLVHSWSFVGGTRALAVT	inactive
EGARSGKENGSGKPYRPLGV	0.528 ± 0.22
VRSCAKLPSVHKYLAQARRL	inactive
LHYLLTLARKSEWHYLLDIR	inactive
TYFLSDWWRDRSNWLWFLAH	inactive
EFATLAEPDVIYYFLVFYCS	inactive
NIGWSVCERL	inactive
MLRLKYLIELTRDFFGWFLF	inactive
ALLTAYDRKNTNGYAGVRWN	inactive
LSNDF	inactive
SFNTLIILSILFVLRQCGTR	inactive
RDFITRSSECSESD	inactive
LIRNEGFCEKS	0.244 ± 0.14
SPSEMIAFWFNSTFVTSASG	-0.46 ± 1.7
FVGHDTELNPHGRYGCLD	inactive
TNTPIMKCELHTRDFVKVIS	inactive
NYGGFKDFG	1.51 ± 0.088
IYIAKLHEFSIRYVLPVWYI	inactive
